Data as given in paper PMC5009721.

Tests used:
[1] = target: T1, RNA polymerase II;TBP (TATA-binding protein);TFIIB;TFIIF (human (HeLa cells);human;human;human, UniProt P24928;P30876;P19387;O15514;P19388;P61218;P62487;P52434;P36954;P62875;P52435;P53 …, |||); test: single-molecule TIRF colocalization, immobilized Pol II
[2] = target: T1, RNA polymerase II;TBP (TATA-binding …); test: EMSA
RNA polymerase II [3] = target: T2, RNA polymerase II (human (HeLa cells), UniProt P24928;P30876;P19387;O15514;P19388;P61218;P62487;P52434;P36954;P62875;P52435;P53 …); test: EMSA
[4] = target: T1, RNA polymerase II;TBP (TATA-binding …); test: single-molecule TIRF colocalization, immobilized Pol II; remark: listed apart in the source
RNA polymerase II [5] = target: T2, RNA polymerase II; test: as above

T1 sequence (P20226 whole entry, chain 13 of 2): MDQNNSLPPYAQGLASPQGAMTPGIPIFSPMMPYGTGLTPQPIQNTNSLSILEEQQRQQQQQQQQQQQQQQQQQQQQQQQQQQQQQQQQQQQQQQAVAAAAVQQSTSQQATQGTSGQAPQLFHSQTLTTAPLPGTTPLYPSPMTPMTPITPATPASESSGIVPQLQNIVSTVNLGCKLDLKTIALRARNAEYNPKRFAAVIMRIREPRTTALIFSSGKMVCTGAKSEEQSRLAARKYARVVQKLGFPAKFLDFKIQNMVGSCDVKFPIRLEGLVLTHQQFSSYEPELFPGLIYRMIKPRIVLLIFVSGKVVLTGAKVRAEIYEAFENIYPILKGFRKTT
T1 sequence (Q00403 whole entry, chain 14 of 2, further chain): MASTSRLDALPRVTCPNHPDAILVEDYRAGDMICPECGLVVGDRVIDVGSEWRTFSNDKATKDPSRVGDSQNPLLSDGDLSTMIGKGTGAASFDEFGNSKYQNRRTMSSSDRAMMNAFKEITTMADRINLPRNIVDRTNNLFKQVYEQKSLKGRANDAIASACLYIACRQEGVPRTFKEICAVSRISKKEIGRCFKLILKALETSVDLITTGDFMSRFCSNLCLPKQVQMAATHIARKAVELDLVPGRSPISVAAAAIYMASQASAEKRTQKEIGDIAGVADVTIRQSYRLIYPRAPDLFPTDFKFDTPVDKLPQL

B1: 18 bp TATA DNA (dsDNA)
DNA 1: CGTCCCTTTTATAGCCTG
DNA 2: CAGGCTATAAAAGGGACG
- binding result [1]: binds

B2: AdML three-piece heteroduplex (-40 to +37), Cy3/Cy5, quencher (dsDNA)
DNA 1: CCTGAGGTTAGTGTGAGTAGTGATTAAAGATAGTGATGAGGACGAACGCGCCCCCACCCCCTTTTATAGCCCCCCTT
DNA 2: AAGGGGGGCTATAAAAGGGGGTGGGGGCGCGAAGCAGGAGTAGACTATCTTTAATCACTA
DNA 3: CTCACACTAACCTCAGG
- binding result [2]: binds
- binding result (RNA polymerase II [3]): binds

B3: AdML three-piece heteroduplex (-40 to +37), Cy3/Cy5, no quencher, no biotin (dsDNA)
DNA 1: CCTGAGGTTAGTGTGAGTAGTGATTAAAGATAGTGATGAGGACGAACGCGCCCCCACCCCCTTTTATAGCCCCCCTT
DNA 2: AAGGGGGGCTATAAAAGGGGGTGGGGGCGCGAAGCAGGAGTAGACTATCTTTAATCACTA
DNA 3: CTCACACTAACCTCAGG
- binding result [4]: binds
- binding result (RNA polymerase II [5]): binds
